This passage reports IC50 results from patent publication US20190119358A1.

A word on the IC50: it is the midpoint of a concentration-inhibition curve. A high value points to weaker potency in that assay.

*1 amine or outer side, *2 acyl side, *3 side chain or, on linkers, in order; H or OH if unused. Bridges are numbered along the chain shown (N, C = ends). [ ]: non-standard residue; d: D form. ξ: configuration not given here. DAPTZAC2 = (S)-3-(4-(2-acrylamidoethyl)-1H-1,2,3-triazol-1-yl)-2-aminopropanoic acid, C=CC(=O)NCCc1cn(C[C@H](N[*:1])C(=O)[*:2])nn1; m‑xylylene = m-xylylene thioether bridge between Cys; Trp(7-aza) = N[C@@H](Cc1c[nH]c2ncccc12)C(=O)O; NMePhe(4-F) = CN[C@@H](Cc1ccc(F)cc1)C(=O)O; mXylylene = c1cc(C[*:1])cc(C[*:2])c1; dPhg = N[C@@H](C(=O)O)c1ccccc1; Chg = N[C@H](C(=O)O)C1CCCCC1; Phg = N[C@H](C(=O)O)c1ccccc1; Tle = CC(C)(C)[C@H](N)C(=O)O; ξPhg = NC(C(=O)O)c1ccccc1; NMeA = CN[C@@H](C)C(=O)O; Nva = CCC[C@H](N)C(=O)O; Sar = CNCC(=O)O

First the molecules themselves.
B1: R4152 (peptide)
peptide: Ac-[Nva]CA[Tle]KH[NMeA][Phg][Trp(7-aza)]Y[NMePhe(4-F)][Sar]C-NH2
modifications: linker 2-13 via mXylylene
SMILES: CCC[C@H](NC(C)=O)C(=O)N[C@H]1CSCc2cccc(c2)CSC[C@@H](C(N)=O)NC(=O)CN(C)C(=O)[C@H](Cc2ccc(F)cc2)N(C)C(=O)[C@H](Cc2ccc(O)cc2)NC(=O)[C@H](Cc2c[nH]c3ncccc23)NC(=O)[C@H](c2ccccc2)NC(=O)[C@H](C)N(C)C(=O)[C@H](Cc2c[nH]cn2)NC(=O)[C@H](CCCCN)NC(=O)[C@H](C(C)(C)C)NC(=O)[C@H](C)NC1=O
B2: R4153 (peptide)
peptide: Ac-[Nva]CY[Tle]KA[NMeA][dPhg][Trp(7-aza)]Y[NMePhe(4-F)][Sar]C-NH2
modifications: linker 2-13 via mXylylene
SMILES: CCC[C@H](NC(C)=O)C(=O)N[C@H]1CSCc2cccc(c2)CSC[C@@H](C(N)=O)NC(=O)CN(C)C(=O)[C@H](Cc2ccc(F)cc2)N(C)C(=O)[C@H](Cc2ccc(O)cc2)NC(=O)[C@H](Cc2c[nH]c3ncccc23)NC(=O)[C@@H](c2ccccc2)NC(=O)[C@H](C)N(C)C(=O)[C@H](C)NC(=O)[C@H](CCCCN)NC(=O)[C@H](C(C)(C)C)NC(=O)[C@H](Cc2ccc(O)cc2)NC1=O
B3: R4150 (peptide)
peptide: Ac-[Nva]CY[Tle]K(4‑(dimethylamino)benzoyl‑2,3,5,6‑d4)H[NMeA][Phg][Trp(7-aza)]Y[NMePhe(4-F)][Sar]C-NH2
modifications: linker 2-13 via mXylylene
B4: R4154 (peptide)
peptide: {Alexa Fluor 594}-[Nva]CY[Nva][Phg][NMePhe(4-F)]TP[Trp(7-aza)]C[Trp(7-aza)]EE-NH2
modifications: linker 2-10 via m‑xylylene
B5: R4151 (peptide)
peptide: Ac-[Nva]SY[Tle]A[DAPTZAC2][NMeA][ξPhg][Trp(7-aza)]Y[NMePhe(4-F)][Sar]S-NH2
modifications: also: places Phg, 7-azaTrp, NMe-4-F-Phe, Sar at 9, 10, 12, 13
B6: R4149 (peptide)
peptide: Ac-[Nva]CY[Tle]KH[NMeA][Chg][Trp(7-aza)]Y[NMePhe(4-F)][Sar]C-NH2
modifications: linker 2-13 via mXylylene
SMILES: CCC[C@H](NC(C)=O)C(=O)N[C@H]1CSCc2cccc(c2)CSC[C@@H](C(N)=O)NC(=O)CN(C)C(=O)[C@H](Cc2ccc(F)cc2)N(C)C(=O)[C@H](Cc2ccc(O)cc2)NC(=O)[C@H](Cc2c[nH]c3ncccc23)NC(=O)[C@H](C2CCCCC2)NC(=O)[C@H](C)N(C)C(=O)[C@H](Cc2c[nH]cn2)NC(=O)[C@H](CCCCN)NC(=O)[C@H](C(C)(C)C)NC(=O)[C@H](Cc2ccc(O)cc2)NC1=O

For this assay, the target named is GMPPNP-loaded H-Ras or GTP-loaded K-Ras. The assay can be described thus: FP competition, displacement of probe R4007 from Ras.
Consider B1, for which the IC50 is 28.3 µM.

As for B2, the IC50 came to 36.5 µM.

As to B3, the IC50 was determined as 7.64 µM.

The molecule B4 yielded an IC50 of 37.4 µM.

In turn, B5 came in with an IC50 of 12.2 µM. This IC50 lies about 3.1-fold lower than the previous one.

In the case of B6, the IC50 worked out at 6.26 µM.
